Laboratory results published in article PMC3229523, “Identification of Lactoferricin B Intracellular Targets Using an Escherichia coli Proteome Chip” (PLoS ONE, 2011).
Ends that are not written are not given here. * marks the point of attachment. Biotin = O=C1N[C@H]2[C@H](CS[C@H]2CCCCC(=O)*)N1

How the values were obtained:
Experiment in all cases: peptide or protein array; E. coli proteome chip: purified His-tagged proteins printed in duplicate on Fullmoon slides, blocked with 1% BSA; 10 nM N-terminal biotinylated LfcinB with 1% BSA, room temperature, 1 h; detected with DyLight 649-labeled streptavidin, ratio to DyLight 549-labeled anti-His antibody; ProCAT normalisation, local cut-off; triplicate chips
Conditions in all cases: both partners purified
YbeQ = biological target: T1, YbeQ (E. coli K-12, UniProt P77234 1-325)
T1 construct: YbeQ, E. coli K-12
T1 sequence (looked up): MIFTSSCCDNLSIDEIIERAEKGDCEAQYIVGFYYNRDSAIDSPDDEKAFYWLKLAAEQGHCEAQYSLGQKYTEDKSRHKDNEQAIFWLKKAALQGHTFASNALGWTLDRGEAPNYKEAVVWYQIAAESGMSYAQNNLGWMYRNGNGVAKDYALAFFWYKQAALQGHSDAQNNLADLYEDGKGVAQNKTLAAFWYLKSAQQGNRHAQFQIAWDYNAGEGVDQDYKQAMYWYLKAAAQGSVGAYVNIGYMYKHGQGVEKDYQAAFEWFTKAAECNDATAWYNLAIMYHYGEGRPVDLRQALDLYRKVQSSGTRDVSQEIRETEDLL

YfiQ = biological target: T2, YfiQ (E. coli K-12, UniProt P76594 1-886)
T2 construct: YfiQ, E. coli K-12
T2 sequence (looked up): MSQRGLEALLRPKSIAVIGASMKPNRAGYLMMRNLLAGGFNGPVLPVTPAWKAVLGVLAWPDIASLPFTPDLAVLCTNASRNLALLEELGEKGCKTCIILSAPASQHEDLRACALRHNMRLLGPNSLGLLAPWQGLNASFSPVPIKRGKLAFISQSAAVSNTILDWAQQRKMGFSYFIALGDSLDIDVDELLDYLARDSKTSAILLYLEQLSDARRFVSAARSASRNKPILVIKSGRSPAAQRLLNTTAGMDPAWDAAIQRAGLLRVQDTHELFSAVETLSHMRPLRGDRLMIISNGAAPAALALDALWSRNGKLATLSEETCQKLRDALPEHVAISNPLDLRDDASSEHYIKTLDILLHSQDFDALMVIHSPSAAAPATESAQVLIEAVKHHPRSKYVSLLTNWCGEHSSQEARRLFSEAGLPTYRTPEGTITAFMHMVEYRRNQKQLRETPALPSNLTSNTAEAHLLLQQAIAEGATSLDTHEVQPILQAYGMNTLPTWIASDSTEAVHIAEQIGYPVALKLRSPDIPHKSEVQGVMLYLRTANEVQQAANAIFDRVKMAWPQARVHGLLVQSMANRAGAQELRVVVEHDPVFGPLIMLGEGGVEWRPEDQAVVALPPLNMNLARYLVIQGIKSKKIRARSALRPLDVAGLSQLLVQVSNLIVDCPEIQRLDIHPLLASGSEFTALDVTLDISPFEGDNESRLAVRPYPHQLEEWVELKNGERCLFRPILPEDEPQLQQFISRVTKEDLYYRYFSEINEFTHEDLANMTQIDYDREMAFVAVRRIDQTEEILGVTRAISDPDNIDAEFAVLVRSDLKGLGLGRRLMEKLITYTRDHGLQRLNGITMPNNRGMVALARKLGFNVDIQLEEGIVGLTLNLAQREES

YobG = biological target: T3, YobG (E. coli K-12, UniProt P64512 1-47)
T3 construct: YobG, E. coli K-12
T3 chain (looked up): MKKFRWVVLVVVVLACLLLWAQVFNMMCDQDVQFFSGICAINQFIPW

YihS = biological target: T4, YihS (E. coli K-12, UniProt P32140 1-413)
T4 construct: YihS, E. coli K-12
T4 sequence (looked up): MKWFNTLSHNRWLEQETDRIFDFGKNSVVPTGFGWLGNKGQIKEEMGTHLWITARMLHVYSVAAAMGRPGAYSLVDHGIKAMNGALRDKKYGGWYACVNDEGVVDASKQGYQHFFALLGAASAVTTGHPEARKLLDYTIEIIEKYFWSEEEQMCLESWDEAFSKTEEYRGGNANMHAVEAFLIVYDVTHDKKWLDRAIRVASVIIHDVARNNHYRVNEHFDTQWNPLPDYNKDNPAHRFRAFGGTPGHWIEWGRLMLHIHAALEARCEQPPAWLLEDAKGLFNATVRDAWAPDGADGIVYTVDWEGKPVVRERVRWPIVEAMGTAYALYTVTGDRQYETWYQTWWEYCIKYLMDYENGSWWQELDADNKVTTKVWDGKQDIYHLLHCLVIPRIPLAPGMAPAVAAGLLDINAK

RhaR = biological target: T5, RhaR (E. coli K-12, UniProt P09378 1-282)
T5 construct: RhaR, E. coli K-12
T5 sequence (looked up): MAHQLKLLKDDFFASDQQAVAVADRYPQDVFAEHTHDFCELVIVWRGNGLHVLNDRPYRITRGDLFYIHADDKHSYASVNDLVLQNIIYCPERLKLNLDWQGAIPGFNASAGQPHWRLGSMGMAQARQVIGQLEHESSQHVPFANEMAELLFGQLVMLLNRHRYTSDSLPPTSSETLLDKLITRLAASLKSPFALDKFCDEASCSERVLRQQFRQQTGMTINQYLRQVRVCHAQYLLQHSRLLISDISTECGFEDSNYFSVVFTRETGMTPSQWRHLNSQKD

Measured: binding result

B1: N-terminal biotinylated Lactoferricin B (peptide, UniProt P24627 36-60, looked up)
peptide: Biotin-FKCRRWQWRMKKLGAPSITCVRRAF
modifications: ends and bridges not checked
notes: lactoferricin B (LfcinB), cationic antimicrobial peptide of 25 amino acids; also called biotinylated LfcinB; biotin-labeled LfcinB; source: bought: Kelowna Inc
binds: all assays above
